Data reported in the supplement of paper PMC9170038.

Test system: MS2 coat protein
Assay: apparent KD of MS2 coat protein; designed switch direction (-1 OFF switch, 1 ON switch): -1; higher = weaker reporter binding
Method in brief: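 Designed RNA switches with common flanks were made on Illumina chips by stalled E. coli RNA polymerase. Titration with SNAP-549-labelled MS2 coat protein doubled from 0.7 or 1.5 nM up to 3 µM. Apparent KD is each design's median over clusters after curve-fitting normalised fluorescence.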

[1] = input ligand: microRNA oligo, concentration not stated
[2] = Eterna round: R95, input ligand: microRNA oligo, concentration not stated
[3] = Eterna round: R95, input ligand: FMN 200 uM
[4] = Eterna round: R95, input ligand: none

Row | Sequence | apparent KD of MS2 coat protein (input ligand: FMN 200 uM) [nM] | apparent KD of MS2 coat protein (input ligand: none) [nM] | apparent KD of MS2 coat protein [1] [nM] | apparent KD of MS2 coat protein [2] [nM] | apparent KD of MS2 coat protein [3] [nM] | apparent KD of MS2 coat protein [4] [nM]
1 | CACCUACAUGAGGAUCACCCAUGUGAGGAUAUGGAACAACAAGAACAUUUACUUGUUCCCAGAAGGCACAUUGG [jun14#1] (Eterna round: R97, puzzle: Exclusion 1) | 64.3 | 130 | – | – | – | –
2 | CACGAACAUGAGGAUCACCCAUGUCAGGAUAUGAGGCUUUGCGUGCCGCAUUUUGGUCUUAGAAGGGACAGCCG [Eternabot (L2) Solution 49] (Eterna round: R97, puzzle: Exclusion 1) | 22.3 | 23 | – | – | – | –
3 | CACGAAUUGUGAGGAUAUGUGCGACAAAGUUGCACAGAAGGCACAUGAGGAUCACCCAUGUAAGCUAGGUCGAAAGACCUAGCG [Omei Exc(NG)1 Av1] (Eterna round: R96, puzzle: Exclusion NG 1) | 215 | 56.4 | 22.7 | – | – | –
4 | CAGACACAUGAGGAUCACCCAUGUGAGGAUAUGCGUACGUUGUCCGUAGGCGACGUGCGCAGAAGGCGCAUUGG [JL-ex1-3.12 Eli mod] (puzzle: Exclusion 1) | – | – | – | 90.3 | – | –
5 | CAGCGUUCAGGAUAUACAUGAGGAUCACCCAUGUGUUCCAGCUAGGAAACUAGCAAAUGUAGAAGGGAACGCUG [Mat - Exclusion 3 - JL Mod - D1] (Eterna round: R97, puzzle: Exclusion 3) | 463 | 125 | – | – | – | –
6 | CAGCUGAAUGUGAGGAUAUGUCGAGCUGCGGCUCGAUAGAAGGCACAUGAGGAUCACCCAUGUCUCAACAGCUG [BmEx4/2-C3] (Eterna round: R97, puzzle: Brourd's mod of Exclusion 4) | 215 | 31.2 | – | – | – | –
7 | CAGGAGUCACGAGGAUAUCUGGCUAAACGAACGAGAGAAGGUGUAGACUACCACAUGAGGAUCACCCAUGUUAUGACUAUACUA [Eternabot solution 30] (Eterna round: R96, puzzle: Exclusion NG 1) | 14.8 | 17.1 | 9.94 | – | – | –
8 | CAGUACAGAGGAUAUACAUGAGGAUCACCCAUGUGUUCCAGCUAGGAAACUAGCGAAUGUAGAAGGCUGUACUG [jl-ex3-4.23 salish99 mod] (Eterna round: R97, puzzle: Exclusion 3) | 166 | 273 | – | – | – | –
9 | CAGUACUACAAGCUUCGGGACAUGAGGAUCACCCAUGUUCGUCUUAUUGAUCUAGGUACGCUGACGUACCUAGAUCU [JL-sv1-2.13 Brourd mod] (puzzle: Sensor v3, turn-off variant 1) | – | – | – | 32.4 | 18.6 | 16.1
10 | CAGUACUGAGGAUAUACAUGAGGAUCACCCAUGUGAACCAGCUAGGAUACUAGCAAAAGUAGAAGGCAGUACUG [Mat - Exclusion 3 - Eli Mod - D17] (Eterna round: R97, puzzle: Exclusion 3) | 67 | 71.4 | – | – | – | –
11 | CAGUACUGAGGAUAUACAUGAGGAUCACCCAUGUGAGCGAUACUAGUGAGGUCGAUUAGUAGAAGGCAGUACUG [Mat X3R4 m33] (Eterna round: R97, puzzle: Exclusion 3) | 353 | 32 | – | – | – | –
12 | CAGUACUGAGGAUAUACAUGAGGAUCACCCAUGUGAUAAGGUUAGGAAACUAACCUAUGUAGAAGGCAGUACUG [Eli x3 4.08] (Eterna round: R97, puzzle: Exclusion 3) | 603 | 104 | – | – | – | –
13 | CAGUACUGAGGAUAUACAUGAGGAUCACCCAUGUGCUUUAGCUAGGAUACUAGCAUUAGUAGAAGGCAGUACUG [Fiskers Ex 3 828 mod 9] (puzzle: Exclusion 3) | – | – | – | 11.3 | – | –
14 | CAGUACUGAGGAUAUACAUGAGGAUCACCCAUGUGUUCCAGCUAGGAAACUAGCAAAGGUAGAAGGCAGUACUG [salish99_ex3_r3_065] (Eterna round: R96, puzzle: Exclusion 3) | – | – | 23.2 | – | – | –
15 | CAGUACUGAGGAUAUACAUGAGGAUCACCCAUGUGUUCCAGCUAGGAAACUAGCAAAGGUAGAAGGCAGUACUG [salish99_ex3_r3_065] (puzzle: Exclusion 3) | – | – | – | 23.9 | 587 | 23.3
16 | CAGUACUGAGGAUAUACAUGAGGAUCACCCAUGUGUUCCAGCUAGGAAACUAGCAGAAGUAGAAGGCAGUACUG [salish99_ex3_r3_067] (Eterna round: R96, puzzle: Exclusion 3) | 311 | 23.3 | 17 | – | – | –
17 | CAGUACUGAGGAUAUACAUGAGGAUCACCCAUGUGUUCCAGCUAGGAAACUAGCAGAAGUAGAAGGCAGUACUG [salish99_ex3_r3_067] (puzzle: Exclusion 3) | – | – | – | 25.5 | 425 | 23.9
18 | CAGUACUGAGGAUAUACAUGAGGAUCACCCAUGUGUUCCAGCUAGGAAACUAGGAAAAGUAGAAGGCAGUACUG [salish99_ex3_r3_069] (puzzle: Exclusion 3) | – | – | – | 23.1 | – | –
19 | CAGUACUGAGGAUAUACAUGAGGAUCACCCAUGUGUUCCGGCUAGGAUACUAGCAAAGGUAGAAGGCAGUACUG [Mat - Exclusion 3 - Eli Mod - D22] (Eterna round: R97, puzzle: Exclusion 3) | 458 | 35.4 | – | – | – | –
20 | CAGUACUGAGGAUAUACAUGAGGAUCACCCAUGUUUUCCAGCUAGGAAACUAGCAAAUGUAGAAGGCAGUACUG [Salish 065 m5] (Eterna round: R97, puzzle: Exclusion 3) | 253 | 25.4 | – | – | – | –
21 | CAGUACUGAGGAUAUACAUGAGGAUCACCCAUGUUUUCCAGCUAGGAUACUAGCAAGUGUAGAAGGCAGUACUG [Mat - Exclusion 3 - Eli Mod - D6] (Eterna round: R97, puzzle: Exclusion 3) | 273 | 24.5 | – | – | – | –
22 | CAGUACUGCAGGCUUAGGGACAUGAGGAUCACCCAUGUUCGUCUUAUUGAUCUAGGUACGCUGACGUACCUAGAUCU [JL-sv1-2.15 Brourd mod] (puzzle: Sensor v3, turn-off variant 1) | – | – | – | 19 | 16.9 | 18.1
23 | CAUACAGUAGUCAGGAUAUUGCAACACACACGGAACGAGAAGGGACAUGAGGAUCACCCAUGUAUACUGUAAAG [EX-4 Malc #5] (puzzle: Brourd's mod of Exclusion 4) | – | – | – | 21 | 16 | 24.7
24 | CAUACAGUAGUCAGGAUAUUGGAAGAGACACGGAACGAGAAGGGACAUGAGGAUCACCCAUGUAUACUGUAAAG [EX-4 Malc #4] (Eterna round: R96, puzzle: Brourd's mod of Exclusion 4) | 22.3 | 29.9 | 25.5 | – | – | –
25 | CAUACAGUAGUCAGGAUAUUGGAAGAGACACGGAACGAGAAGGGACAUGAGGAUCACCCAUGUAUACUGUAAAG [EX-4 Malc #4] (puzzle: Brourd's mod of Exclusion 4) | – | – | – | 23.8 | – | –
26 | CAUCACUGUGUCAGGAUAUCAUUUGGACGUCUAAGUGAGAAGGGACAUGAGGAUCACCCAUGUGGAGCUGGCCA [Eternabot (L1) Solution 63] (Eterna round: R97, puzzle: Brourd's mod of Exclusion 4) | 73.5 | 41.8 | – | – | – | –
